Laboratory results published in patent US20090226428A1 (CEPHALON AUSTRALIA, published 2009).

Columns and labels:
[1] = biological target: T1, human TNF-α (human, UniProt P01375 77-233); assay: cell-based or functional assay
[2] = biological target: T1, human TNF-α; assay: receptor binding assay (ELISA): dAb mixed with TNF (10 ng/ml), binding of TNF to captured TNF receptor 1 Fc fusion protein detected; blocked partner TNF receptor 1-Fc
Method: dAbs diversified in the 14 selected positions were tested for the ability to inhibit the binding of TNF to recombinant TNF receptor 1 (p55). Briefly, Maxisorp plates were incubated overnight with […] anti-human Fc mouse monoclonal antibody (Zymed, San Francisco, USA). The wells were washed with phosphate buffered saline (PBS) containing 0.05% Tween-20 and then blocked with 1% BSA in PBS before being incubated with 100 ng/ml TNF receptor 1 Fc fusion protein (R&D Systems, Minneapolis, USA). Each dAb was mixed with TNF which was added to the washed wells at a final concentration of 10 ng/ml. TNF binding was detected with 0.2 mg/ml biotinylated anti-TNF antibody (HyCult biotechnology, Uben, Netherlands) followed by 1 in 500 dilution of horse radish peroxidase labelled streptavidin (Amersham Biosciences, UK) and then incubation with TMB substrate (KPL, Gaithersburg, USA). The reaction was stopped by the addition of HCl and the absorbance was read at 450 nm. Anti-TNF dAb activity lead to a decrease in TNF binding and therefore a decrease in absorbance compared with the TNF only control (FIG. 5).

T1 sequence (P01375 77-233 limits assumed): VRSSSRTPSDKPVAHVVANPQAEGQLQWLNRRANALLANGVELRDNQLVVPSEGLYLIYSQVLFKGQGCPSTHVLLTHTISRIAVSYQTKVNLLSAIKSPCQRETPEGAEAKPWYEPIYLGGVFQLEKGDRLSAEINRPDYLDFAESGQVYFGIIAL

IC50 (read off the curve) [2] [nM] | Binder | EC50 (read off the curve); L929 cytotoxicity assay, cell viability (% control) [1] [nM]
 | Compound 100 (other) VL: DIQMTQSPSSLSASVGDRVTITCRASQSIDSYLHWYQQKPGKAPKLLIYSASNLETGVPSRFSGSGSGTDFTLTISSLLPEDFATYYCQQVVWRPFTFGQGTKVEIKR | ~50
 | Compound 123 (other) VL: DIQMTQSPSSLSASVGDRVTITCRASQAIDSYLHWYQQKPGKAPKLLIYSASNLETGVPSRFSGSGSGTDFTLTISSLQPEDFATYYCQQVVWRPFTFGQGTKVEIKR | ~50
~30 | Compound 145 (marmoset CDR-grafted dAb) (other, also called parent dAb) VL: DIQMTQSPSSLSASVGDRVTITCRASQSIDSYLHWYQQKPGKAPKLLIYSASNLETGVPSRFSGSGSGTDFTLTISSLQPEDFATYYCQQVVWRPFTFGQGTKVEIKR | 
~30 | Acceptor dAb (Compound 128) (other, also called acceptor variable region (anti-TNF domain antibody)) VL: DIQMTQSPSSLSASVGDRVTITCRASQSIDSYLHWYQQKPGKAPKLLIYSASELQSGVPSRFSGSGSGTDFTLTISSLQPEDFATYYCQQVVWRPFTFGQGTKVEIKR | 
